Source: paper PMC6500386 (Biochemistry, 2019)

Molecular target: the molecule itself
Test: SEC + native gel or EMSA

B1: Bmp3, FAD-dependent prolyl-S-Bmp1(CP) oxidase (enzyme, Marinomonas mediterranea MMB-1)
chain: MNFEWTHEQAELFEHALRFGKELSAPLQEDNGFPRDNWNALGDFGYFGLPIPEKYAKDGSGFDILTTIKIIEGLGQSCTDTGLLFAGAAHTFACSMPILEHGSETLKHQLLPDLATGRKIAANAISEASAGSDISNLATTAQKEGDYYVLNGGKSYVTNGSIADYYVVYATTNKKHGYLGQTAFVVPRNTPGISVGNDYHKLGLRSAPLNQVFFDNCTIHKDYALGREGQGARIFAASMDWERCCLFAIFVGAMQRDLNQCIEYANTRMQGDKTISRFQAVSHRIADMGVRLESARLMLYYAAWQKSQDVDNTKAVAMSKLAISEAFVQSGIDSIRVHGALGYLDEGRVNNSIKDALGSVLFSGTSDIQRELICNRLGLL
stoichiometry N: 4
